Laboratory results from patent US20230381281A1, “PHARMACEUTICAL COMPOSITION COMPRISING GLUCAGON/GLP-1/GIP TRIPLE AGONIST OR LONG-ACTING CONJUGATE THEREOF FOR PREVENTING OR TREATING LUPUS-RELATED DISEASES” (HANMI PHARM. CO., LTD., priority 2020, published 2023).
Bridge positions count the residues as written; N and C are the ends. Square brackets hold non-standard residues; d marks the D form. Ends that are not written are not given here. Aib = CC(C)(N)C(=O)O

Columns and labels:
human GLP-1 receptor [1] = molecular target: T1, human GLP-1 receptor (Homo sapiens, UniProt P43220); assay: In vitro cAMP activity in human GLP-1 receptor-expressing CHO cells (LANCE cAMP kit); format: cell-based; details: long-acting conjugates; relative titer from cAMP EC50 compared to human GLP-1
T1 construct: expressed in transfected cells; host or cells: Chinese hamster ovary (CHO)
Method: (§1) In order to measure the activity of the triple agonists and long-acting conjugates thereof prepared according to Examples 1 and 2, the in-vitro cell activity was measured using cell lines transformed with GLP-1 receptor, glucagon (GCG) receptor, and GIP receptor, respectively.
(§2) The cell lines were transformed to express human GLP-1 receptor, human GCG receptor and human GIP receptor genes in Chinese hamster ovary (CHO), respectively, and are suitable for measuring the activities of GLP-1, GCG, and GIP. Therefore, the activity for each part was measured using each transformed cell line.
(§3) To measure the GLP-1 activity of the triple agonists and long-acting conjugates prepared according to Examples 1 and 2, human GLP-1 was diluted from 50 nM to […] by 4-fold serial dilution, and the triple agonists and long-acting conjugates thereof prepared according to Examples 1 and 2 were diluted from 400 nM to 0.00038 nM by 4-fold serial dilution. The culture medium was removed from the cultured human GLP-1 receptor-expressing CHO cells, 5 μl of each of the serially diluted materials was added to the cells, and then 5 μl of buffer containing cAMP antibody was added to the cells, followed by 15 minutes of incubation at room temperature. Then, cells were lysed by adding 10 μl of detection mix containing cell lysis buffer, and reacted at room temperature for 90 minutes. The cell lysate after the reaction had been completed, was applied to the LANCE cAMP kit (PerkinElmer, USA) to calculate the EC50 value through the accumulated cAMP, and then compared with each other.

human GCG receptor [2] = molecular target: T2, human GCG receptor (Homo sapiens, UniProt P47871); assay: In vitro cAMP activity in human GCG receptor-expressing CHO cells (LANCE cAMP kit); format: cell-based; details: for In vitro activity compared to native peptide (%) vs Glucagon: long-acting conjugates, relative titer from cAMP EC50 compared to human GCG; for activity on the glucagon receptor: statement in words in the description
T2 construct: expressed in transfected cells; host or cells: Chinese hamster ovary (CHO)
Method: as §1, §2
as §3, with “GCG” for “GLP-1”

human GIP receptor [3] = molecular target: T3, human GIP receptor (Homo sapiens, UniProt P48546); assay: In vitro cAMP activity in human GIP receptor-expressing CHO cells (LANCE cAMP kit); format: cell-based; details: long-acting conjugates; relative titer from cAMP EC50 compared to human GIP
T3 construct: expressed in transfected cells; host or cells: Chinese hamster ovary (CHO)
T3 sequence (P48546 22-466): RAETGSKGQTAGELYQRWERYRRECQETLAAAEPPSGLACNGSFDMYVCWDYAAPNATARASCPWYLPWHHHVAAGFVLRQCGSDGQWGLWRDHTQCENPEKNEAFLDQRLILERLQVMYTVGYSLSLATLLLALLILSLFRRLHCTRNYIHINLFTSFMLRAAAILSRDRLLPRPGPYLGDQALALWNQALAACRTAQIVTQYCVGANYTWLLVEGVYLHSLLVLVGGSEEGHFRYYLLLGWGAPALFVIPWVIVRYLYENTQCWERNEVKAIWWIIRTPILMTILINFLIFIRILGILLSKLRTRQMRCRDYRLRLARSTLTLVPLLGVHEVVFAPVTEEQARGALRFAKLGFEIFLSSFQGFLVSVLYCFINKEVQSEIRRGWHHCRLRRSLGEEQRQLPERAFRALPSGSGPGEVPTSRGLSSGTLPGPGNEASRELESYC
Method: as §1, §2
as §3, with “measure the GIP activity of” for “measure the GLP-1 activity of”, “long-acting conjugates thereof prepared according” for “long-acting conjugates prepared according”, “2, human GIP was diluted” for “2, human GLP-1 was diluted”, “cultured human GIP receptor-expressing CHO” for “cultured human GLP-1 receptor-expressing CHO”

human GLP-1 receptor [4] = molecular target: human GLP-1 receptor (human, UniProt P43220 24-463); assay: cell-based or functional assay
human GCG receptor [5] = molecular target: human GCG receptor (human, UniProt P47871 26-477); assay: cell-based or functional assay
human GIP receptor [6] = molecular target: T4, human GIP receptor (human, UniProt P48546 22-466); assay: cell-based or functional assay
T4 sequence (looked up): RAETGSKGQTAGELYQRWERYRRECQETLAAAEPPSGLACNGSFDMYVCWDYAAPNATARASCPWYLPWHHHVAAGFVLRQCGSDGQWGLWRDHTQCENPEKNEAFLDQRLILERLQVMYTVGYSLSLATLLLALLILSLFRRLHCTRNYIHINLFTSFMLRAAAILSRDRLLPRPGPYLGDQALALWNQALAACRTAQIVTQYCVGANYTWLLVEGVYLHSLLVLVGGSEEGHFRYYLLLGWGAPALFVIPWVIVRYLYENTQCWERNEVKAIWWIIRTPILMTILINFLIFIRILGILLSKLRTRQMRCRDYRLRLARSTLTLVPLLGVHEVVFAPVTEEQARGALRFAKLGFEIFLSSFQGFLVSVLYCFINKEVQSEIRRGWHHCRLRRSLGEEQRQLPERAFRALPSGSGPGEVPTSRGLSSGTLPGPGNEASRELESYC

T1 sequence (P43220 24-463): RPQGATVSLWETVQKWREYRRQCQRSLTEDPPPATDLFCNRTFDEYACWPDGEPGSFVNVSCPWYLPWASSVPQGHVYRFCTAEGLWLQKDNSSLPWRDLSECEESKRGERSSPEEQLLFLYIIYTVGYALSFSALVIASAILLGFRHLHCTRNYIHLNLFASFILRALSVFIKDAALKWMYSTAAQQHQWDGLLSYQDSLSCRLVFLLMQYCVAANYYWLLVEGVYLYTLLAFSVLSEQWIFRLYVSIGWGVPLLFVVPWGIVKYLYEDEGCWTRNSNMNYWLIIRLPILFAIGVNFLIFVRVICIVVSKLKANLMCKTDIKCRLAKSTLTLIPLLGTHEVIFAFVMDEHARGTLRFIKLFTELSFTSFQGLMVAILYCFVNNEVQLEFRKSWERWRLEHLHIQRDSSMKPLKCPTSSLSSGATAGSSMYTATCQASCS
Chain of human GCG receptor (human, UniProt P47871 26-477) (P47871 26-477): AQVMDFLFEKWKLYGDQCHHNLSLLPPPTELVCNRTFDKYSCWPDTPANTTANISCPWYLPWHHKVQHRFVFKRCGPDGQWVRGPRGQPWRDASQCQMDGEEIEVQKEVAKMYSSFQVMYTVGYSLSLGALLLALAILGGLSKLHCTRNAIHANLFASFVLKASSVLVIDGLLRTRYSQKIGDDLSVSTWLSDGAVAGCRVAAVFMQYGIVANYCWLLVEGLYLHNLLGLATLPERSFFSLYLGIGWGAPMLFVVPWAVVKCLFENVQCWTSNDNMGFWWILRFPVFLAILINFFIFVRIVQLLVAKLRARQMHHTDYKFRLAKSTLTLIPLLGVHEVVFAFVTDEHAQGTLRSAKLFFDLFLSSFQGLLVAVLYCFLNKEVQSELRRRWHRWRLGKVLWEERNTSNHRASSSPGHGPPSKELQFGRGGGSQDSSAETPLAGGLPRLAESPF
T2 sequence (P47871 26-477): as above

Q: “43 (Y[Aib]QGTFTSDYSKYLDEKRAKEFVQWLLDHHCSSGQPPPS; bridge 16-20) [compound 43]” was tested. Which “In vitro activity compared to native peptide (%) vs GLP-1” value (from here on “In vitro activity … (%) vs GLP-1”) (human GLP-1 receptor [1]) did it give?
A: The value was 2.1%.

Q: And the “In vitro activity compared to native peptide (%) vs Glucagon” value (shortened to “In vitro activity … (%) vs Glucagon”) (human GCG receptor [2])?
A: Its value is 13.5%.

Q: And the “activity on the glucagon receptor” value (human GCG receptor [2])?
A: The value was “very high activity”.

Q: What about the “In vitro activity compared to native peptide (%) vs GIP” value (shortened to “In vitro activity … (%) vs GIP”) (human GIP receptor [3]) of the same molecule?
A: The value was 0.6%.

Q: Which “In vitro activity … (%) vs GLP-1” value (human GLP-1 receptor [1]) does the source give for “22 (Y[Aib]QGTFTSDYSKCLDEKRAKEFVQWLLDHHPSSGQPPPS; bridge 16-20) [compound 22]” here?
A: Its value is 0.1%.

Q: And the “In vitro activity … (%) vs Glucagon” value (human GCG receptor [2])?
A: Its value is 0.9%.

Q: And the “activity on the glucagon receptor” value (human GCG receptor [2])?
A: Its value is “very high activity”.

Q: What about the “In vitro activity … (%) vs GIP” value (human GIP receptor [3]) of the same molecule?
A: Its value is 0.5%.

Q: Which results are given for “96 (Y[Aib]QGTFTSDYSKYLDEKRAKEFVQWLLDHCPSSGQPPPS; bridge 16-20) [compound 96]”?
A: In vitro activity compared to native peptide (%) vs GLP-1 (human GLP-1 receptor [1]): 0.3%; In vitro activity compared to native peptide (%) vs Glucagon (human GCG receptor [2]): 4.0%; activity on the glucagon receptor (human GCG receptor [2]): very high activity; In vitro activity compared to native peptide (%) vs GIP (human GIP receptor [3]): 0.3%

Q: For “50 (H[Aib]QGTFTSDYSKYLDEKRAKEFVQWLLDHHPSSGQPPPSC; bridge 16-20) [compound 50]”, which “In vitro activity … (%) vs GLP-1” value (human GLP-1 receptor [1]) is on record?
A: Its value is 15.4%.

Q: And the “In vitro activity … (%) vs Glucagon” value (human GCG receptor [2])?
A: The value was 6.9%.

Q: What about the “In vitro activity … (%) vs GIP” value (human GIP receptor [3]) of the same molecule?
A: Its value is 0.7%.

Q: Which results are given for “77 (Y[Aib]QGTFTSDYSKYLDEKAAKDFVQWLLDHHPSSGQPPPSC; bridge 16-20) [compound 77]”?
A: In vitro activity compared to native peptide (%) vs GLP-1 (human GLP-1 receptor [1]): 6.7%; In vitro activity compared to native peptide (%) vs Glucagon (human GCG receptor [2]): 1.7%; In vitro activity compared to native peptide (%) vs GIP (human GIP receptor [3]): 6.6%

Q: “21 (Y[Aib]QGTFTSDYSKYLDECRAKEFVQWLLDHHPSSGQPPPS; bridge 16-20) [compound 21]” was tested. Which “In vitro activity … (%) vs GLP-1” value (human GLP-1 receptor [1]) did it give?
A: Its value is 0.1%.

Q: What about the “In vitro activity … (%) vs Glucagon” value (human GCG receptor [2]) of the same molecule?
A: Its value is 1.6%.

Q: And the “activity on the glucagon receptor” value (human GCG receptor [2])?
A: Its value is “very high activity”.

Q: And the “In vitro activity … (%) vs GIP” value (human GIP receptor [3])?
A: Its value is 0.2%.

Q: For “66 (Y[Aib]QGTFTSDYSKYLDECRAKDFVQWLLDHHPSSGQPPPS; bridge 16-20) [compound 66]”, which “activity on the glucagon receptor” value (human GCG receptor [2]) is on record?
A: Its value is “very high activity”.

Q: Which “activity on the glucagon receptor” value (human GCG receptor [2]) does the source give for “97 (Y[Aib]QGTFTSDYSKYLDEKRAKEFVQWLLDCHPSSGQPPPS; bridge 16-20) [compound 97]” here?
A: The value was “very high activity”.

Q: For “70 (Y[Aib]QGTFTSDYSKCLDEKRAKDFVQWLLDHHPSSGQPPPS; bridge 16-20) [compound 70]”, which “activity on the glucagon receptor” value (human GCG receptor [2]) is on record?
A: The value was “very high activity”.

Q: For “42 (Y[Aib]QGTFTSDYSKYLDEKRAKEFVQWLLDHHPSSGQPPPSC; bridge 16-20) [compound 42]”, which “In vitro activity … (%) vs GLP-1” value (human GLP-1 receptor [1]) is on record?
A: The value was 3.1%.

Q: What about the “In vitro activity … (%) vs Glucagon” value (human GCG receptor [2]) of the same molecule?
A: The value was 23.1%.

Q: And the “activity on the glucagon receptor” value (human GCG receptor [2])?
A: Its value is “very high activity”.

Q: What about the “In vitro activity … (%) vs GIP” value (human GIP receptor [3]) of the same molecule?
A: The value was 1.2%.

B1: Triple agonist of SEQ ID NO: 28 (peptide)
peptide: H[Aib]QGTFTSDYSKYLDEKRAQEFVCWLLAQKGKKNDWKHNIT
Q: B1 was tested. Which “In vitro activity … (%) vs GLP-1” value (human GLP-1 receptor [4]) did it give?
A: The value was 17.2%.

Q: What about the “In vitro activity … (%) vs Glucagon” value (human GCG receptor [5]) of the same molecule?
A: The value was 1.6%.

Q: What about the “In vitro activity … (%) vs GIP” value (human GIP receptor [6]) of the same molecule?
A: The value was under 0.1%.

B2: Triple agonist of SEQ ID NO: 32 (peptide)
peptide: H[Aib]QGTFTSDYSKYLDEKACKDFVQWLLDGGPSSGAPPPS
modifications: bridge 16-20
Q: For B2, which “In vitro activity … (%) vs GLP-1” value (human GLP-1 receptor [4]) is on record?
A: Its value is 151%.

Q: And the “In vitro activity … (%) vs Glucagon” value (human GCG receptor [5])?
A: The value was 1.7%.

Q: And the “In vitro activity … (%) vs GIP” value (human GIP receptor [6])?
A: The value was 8.8%.

B3: Triple agonist of SEQ ID NO: 33 (peptide)
peptide: H[Aib]QGTFTSDYSIAMDEIHQKDFVNWLLAQKC
modifications: bridge 16-20
Q: How did the “In vitro activity … (%) vs GLP-1” value (human GLP-1 receptor [4]) turn out when B3 was run?
A: The value was 24.5%.

Q: And the “In vitro activity … (%) vs Glucagon” value (human GCG receptor [5])?
A: The value was under 0.1%.

Q: What about the “In vitro activity … (%) vs GIP” value (human GIP receptor [6]) of the same molecule?
A: The value was 10.4%.

B4: Triple agonist of SEQ ID NO: 27 (peptide)
peptide: H[Aib]QGTFTSDYSKYLDERACQDFVQWLLDQGGPSSGAPPPS
Q: With B4 as the molecule, how does the “In vitro activity … (%) vs GLP-1” value (human GLP-1 receptor [4]) read?
A: Its value is 83.1%.

Q: What about the “In vitro activity … (%) vs Glucagon” value (human GCG receptor [5]) of the same molecule?
A: Its value is 0.8%.

Q: And the “In vitro activity … (%) vs GIP” value (human GIP receptor [6])?
A: Its value is 0.9%.

B5: Triple agonist of SEQ ID NO: 29 (peptide)
peptide: H[Aib]QGTFTSDYSKYLDEKAAKEFVQWLLNTC
modifications: bridge 16-20
Q: Which results are given for B5?
A: In vitro activity compared to native peptide (%) vs GLP-1 (human GLP-1 receptor [4]): 38.5%; In vitro activity compared to native peptide (%) vs Glucagon (human GCG receptor [5]): 6%; In vitro activity compared to native peptide (%) vs GIP (human GIP receptor [6]): < 0.1%

B6: Triple agonist of SEQ ID NO: 31 (peptide)
peptide: H[Aib]QGTFTSDYSKYLDEKACKEFVQWLLAQ
modifications: bridge 16-20
Q: What does the source list for B6?
A: In vitro activity compared to native peptide (%) vs GLP-1 (human GLP-1 receptor [4]): 135%; In vitro activity compared to native peptide (%) vs Glucagon (human GCG receptor [5]): 2.2%; In vitro activity compared to native peptide (%) vs GIP (human GIP receptor [6]): 2.4%

B7: Triple agonist of SEQ ID NO: 30 (peptide)
peptide: H[Aib]QGTFTSDYSKYLDEKAQKEFVQWLLDTC
modifications: bridge 16-20
Q: Which results are given for B7?
A: In vitro activity compared to native peptide (%) vs GLP-1 (human GLP-1 receptor [4]): 142%; In vitro activity compared to native peptide (%) vs Glucagon (human GCG receptor [5]): 0.7%; In vitro activity compared to native peptide (%) vs GIP (human GIP receptor [6]): 0.8%
